Source: publication PMC6258031 (Structure (London, England : 1993), 2017)
Non-standard residues stand in square brackets, D forms with d. SeMet = C[Se]CC[C@H](N)C(=O)O

B1: Bicc1 SAM R924E (native) (domain or fragment, human, UniProt Q9H694 870-939, looked up)
chain: NSSFKGSDLPELFSKLGLGKYTDVFQQQEIDLQTFLTLTDQDLKELGITTFGAREKMLLAISELNKNRRK

What was measured:
ANKS6 SAM (Homo sapiens) = ANKS6 SAM (Homo sapiens) (UniProt Q68DC2); details: cited from earlier work
Bicc1 SAM R924E (native) = target: B1; assay: SPR
Bicc1 SAM F920E = target: T1, Bicc1 SAM F920E (human, UniProt Q9H694 870-939, F920E); assay: SEC-MALS
T1 sequence (looked up): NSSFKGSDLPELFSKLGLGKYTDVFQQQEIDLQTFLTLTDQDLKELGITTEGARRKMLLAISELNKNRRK

crystal structure = target: the molecule itself; assay: crystal structure
ANKS3 SAM F472E = target: T2, ANKS3 SAM F472E (human, UniProt Q6ZW76 421-490, F472E); assay: SPR
T2 sequence (looked up): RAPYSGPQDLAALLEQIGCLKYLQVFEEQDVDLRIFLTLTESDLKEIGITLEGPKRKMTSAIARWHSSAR

Sequence of ANKS6 SAM (Homo sapiens) (Q68DC2 770-839): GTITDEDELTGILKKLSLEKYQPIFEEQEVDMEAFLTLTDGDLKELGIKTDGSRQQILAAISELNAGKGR

Molecule	Kd (Bicc1 SAM R924E (native))	binding result (crystal structure)	Kd (ANKS3 SAM F472E)	also measured
ANKS3 SAM (from UniProt Q6ZW76)	–	–	–	Kd (ANKS6 SAM (Homo sapiens)): 249 nM
ANKS3 SAM I455E (domain or fragment, human, UniProt Q6ZW76 421-490, looked up) RAPYSGPQDLAALLEQIGCLKYLQVFEEQDVDLREFLTLTESDLKEIGITLFGPKRKMTSAIARWHSSAR	2200 ± 100 nM	–	–	binding result (Bicc1 SAM F920E): binds
Bicc1 SAM R924E SeMet (domain or fragment, human, UniProt Q9H694 870-939, looked up) NSSFKGSDLPELFSKLGLGKYTDVFQQQEIDLQTFLTLTDQDLKELGITTFGAREK[SeMet]LLAISELNKNRRK	–	binds	–	–
Bicc1 SAM E898K (domain or fragment, human, UniProt Q9H694 870-939, looked up) NSSFKGSDLPELFSKLGLGKYTDVFQQQKIDLQTFLTLTDQDLKELGITTFGARRKMLLAISELNKNRRK	1350 ± 100 nM	–	1350 ± 100 nM	–
B1	–	binds	–	–
Bicc1 SAM D911K (domain or fragment, human, UniProt Q9H694 870-939, looked up) NSSFKGSDLPELFSKLGLGKYTDVFQQQEIDLQTFLTLTDQKLKELGITTFGARRKMLLAISELNKNRRK	1350 ± 100 nM	–	1350 ± 100 nM	–
